EC50, amplification assay (β-galactosidase), Single Receptor Format, ED50 of carbachol for the β-galactosidase response of cells co-expressing m4 and Gq-i5 and ED50 of carbachol for the β-galactosidase response of cells co-expressing m4 and Gq-o5 data for four substances are collected here from patent US20050244862A1.

Targets include NK1 tachykinin receptor (UniProt P25103); Insulin receptor; NK2 tachykinin receptor (UniProt P21452); Gq-i5 chimeric G-protein; Gq-o5 chimeric G-protein.
What all share (test): cell-based or functional assay
The next assay deals with T1, NK3 tachykinin receptor (UniProt P29371).
T1 sequence (looked up): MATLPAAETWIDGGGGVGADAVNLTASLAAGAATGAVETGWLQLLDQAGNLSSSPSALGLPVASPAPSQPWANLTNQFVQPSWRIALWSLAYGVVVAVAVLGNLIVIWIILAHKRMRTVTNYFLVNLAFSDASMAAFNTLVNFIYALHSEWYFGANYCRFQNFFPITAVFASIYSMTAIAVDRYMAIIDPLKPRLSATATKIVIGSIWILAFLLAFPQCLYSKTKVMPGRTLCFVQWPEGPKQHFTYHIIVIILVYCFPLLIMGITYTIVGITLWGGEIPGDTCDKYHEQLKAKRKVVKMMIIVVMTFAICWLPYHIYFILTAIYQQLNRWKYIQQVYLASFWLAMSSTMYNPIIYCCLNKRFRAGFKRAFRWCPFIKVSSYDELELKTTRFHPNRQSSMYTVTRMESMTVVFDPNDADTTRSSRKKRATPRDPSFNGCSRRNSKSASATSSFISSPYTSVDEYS

Sequence of m4 muscarinic receptor (P08173 whole entry): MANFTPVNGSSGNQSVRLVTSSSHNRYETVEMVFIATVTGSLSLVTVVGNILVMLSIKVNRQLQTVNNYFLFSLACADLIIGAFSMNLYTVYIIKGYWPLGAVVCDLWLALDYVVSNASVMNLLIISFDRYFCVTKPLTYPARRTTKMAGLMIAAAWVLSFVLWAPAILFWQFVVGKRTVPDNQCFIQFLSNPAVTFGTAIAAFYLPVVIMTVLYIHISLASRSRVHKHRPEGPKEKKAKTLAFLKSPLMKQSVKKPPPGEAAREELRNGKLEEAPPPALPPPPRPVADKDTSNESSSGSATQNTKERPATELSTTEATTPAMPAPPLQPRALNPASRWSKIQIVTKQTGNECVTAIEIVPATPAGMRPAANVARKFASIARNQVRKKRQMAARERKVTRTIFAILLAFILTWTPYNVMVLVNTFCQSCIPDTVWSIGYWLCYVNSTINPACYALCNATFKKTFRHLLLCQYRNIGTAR
Sequence of NK2 tachykinin receptor (P21452 whole entry): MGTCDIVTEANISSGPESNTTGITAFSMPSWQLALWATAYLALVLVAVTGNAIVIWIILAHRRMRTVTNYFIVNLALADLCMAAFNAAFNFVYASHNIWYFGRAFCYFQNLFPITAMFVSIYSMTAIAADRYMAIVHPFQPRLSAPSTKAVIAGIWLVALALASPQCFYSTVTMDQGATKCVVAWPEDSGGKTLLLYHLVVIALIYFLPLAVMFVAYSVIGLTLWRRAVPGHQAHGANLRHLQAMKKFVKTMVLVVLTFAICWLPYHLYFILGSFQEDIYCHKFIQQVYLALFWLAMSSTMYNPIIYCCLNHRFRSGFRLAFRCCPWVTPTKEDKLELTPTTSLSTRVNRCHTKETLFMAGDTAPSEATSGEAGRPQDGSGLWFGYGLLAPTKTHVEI
Sequence of NK1 tachykinin receptor (P25103 whole entry): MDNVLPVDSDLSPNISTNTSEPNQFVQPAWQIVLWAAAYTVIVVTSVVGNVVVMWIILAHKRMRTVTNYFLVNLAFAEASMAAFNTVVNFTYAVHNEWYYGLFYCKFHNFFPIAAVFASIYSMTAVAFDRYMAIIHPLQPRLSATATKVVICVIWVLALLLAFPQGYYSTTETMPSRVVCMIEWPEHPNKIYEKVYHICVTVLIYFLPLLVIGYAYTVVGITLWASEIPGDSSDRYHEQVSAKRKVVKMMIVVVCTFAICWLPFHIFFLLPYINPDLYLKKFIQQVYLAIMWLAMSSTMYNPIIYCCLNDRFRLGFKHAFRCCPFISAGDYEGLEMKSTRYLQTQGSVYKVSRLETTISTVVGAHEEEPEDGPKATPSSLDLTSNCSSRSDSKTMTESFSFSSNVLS

Take “neurokinin A (from UniProt P20366 98-107) (peptide)”: the EC50, amplification assay (β-galactosidase), Single Receptor Format in the assay with NK1 tachykinin receptor was 14 nM; in the assay with NK3 tachykinin receptor it was 11 nM.

In the assay with Insulin receptor, Insulin (ligand) showed an EC50, amplification assay (β-galactosidase), Single Receptor Format of 0.08 nM.

On to “substance P (from UniProt P20366 58-68) (peptide)”, for which the EC50, amplification assay (β-galactosidase), Single Receptor Format with NK2 tachykinin receptor was 65 nM; in the assay with NK3 tachykinin receptor it was 164 nM.

As for “m4 muscarinic receptor (from UniProt P08173 1-479)”, in the assay with Gq-i5 chimeric G-protein, the ED50 of carbachol for the β-galactosidase response of cells co-expressing m4 and Gq-i5 came to 37 nM. Also, the ED50 of carbachol for the β-galactosidase response of cells co-expressing m4 and Gq-o5 in the assay with Gq-o5 chimeric G-protein was determined as 32 nM.
